In publication PMC2156119 (The Journal of Cell Biology, 1999) one finds koff data, which are given here for 1 molecule.

The target in assay [1] is T1, tubulin heterodimer (bovine tubulin) (bovine, UniProt Q6B856 1-445). Description: pull-down.
The target in assay [2] is T1, tubulin heterodimer (bovine tubulin). Description: pull-down. This is another data set of the same source.

Read-outs that look alike come from different tables or passages of the source.

Usually koff stands for the first-order rate constant of dissociation. High values mean a short-lived complex, low ones a long-lived complex.

B1: Op18-wt-F (oncoprotein 18/stathmin, wild type, COOH-terminal Flag epitope) (natural protein, human, UniProt P16949 1-149, looked up)
chain: MASSDIQVKELEKRASGQAFELILSPRSKESVPEFPLSPPKKKDLSLEEIQKKLEAAEERRKSHEAEVLKQLAEKREHEKEVLQKAIEENNNFSKMAEEKLTHKMEANKENREAQMAAKLERLREKDKHIEEVRKNKESKDPADETEAD
With B1, the values for the koff in assay [1] and in assay [2] were 0.01 s⁻¹ and 0.0025 s⁻¹, respectively.
